The data set deals with the molecule itself. Put plainly: crystal structure.

B1: Streptococcus pneumoniae pyruvate kinase (enzyme)
chain: MNKRVKIVATLGPAVEIRGGKKFGEDGYWGEKLDVEASAKNIAKLIEAGANTFRFNFSHGDHQEQGERMATVKLAEKIAGKKVGFLLDTKGPEIRTELFEGEAKEYSYKTGEKIRVATKQGIKSTREVIALNVAGALDIYDDVEVGRQVLVDDGKLGLRVVAKDDATREFEVEVENDGIIAKQKGVNIPNTKIPFPALAERDNDDIRFGLEQGINFIAISFVRTAKDVNEVRAICEETGNGHVQLFAKIENQQGIDNLDEIIEAADGIMIARGDMGIEVPFEMVPVYQKMIIKKVNAAGKVVITATNMLETMTEKPRATRSEVSDVFNAVIDGTDATMLSGESANGKYPLESVTTMATIDKNAQALLNEYGRLDSDSFERNSKTEVMASAVKDATSSMDIKLVVTLTKTGHTARLISKYRPNADILALTFDELTERGLMLNWGVIPMLTDAPSSTDDMFEIAERKAVEAGLVESGDDIVIVAGVPVGEAVRTNTMRIRTVR
For orientation: stoichiometry N means a count of units in the complex or per binding partner. In the case of B1, the “stoichiometry N” value stood at 4.
